Laboratory results taken from publication PMC10221487.

What was measured:
[1] = target: ZV54^ΔXF (ZV54 mAb expressed in glycoengineered ΔXF N. benthamiana plants); test: SPR; settings: remark: other sources report otherwise
[2] = target: ZV54^CHO (CHO cell-derived ZV54 mAb); test: SPR; settings: remark: other sources report otherwise

B1: recombinant human FcγRIIA ectodomain, P12318 34-217 (receptor)
chain: QAAAPPKAVLKLEPPWINVLQEDSVTLTCQGARSPESDSIQWFHNGNLIPTHTQPSYRFKANNNDSGEYTCQTGQTSLSDPVHLTVLSEWLVLQTPHLEFQEGETIMLRCHSWKDKPLVKVTFFQNGKSQKFSHLDPTFSIPQANHSHSGDYHCTGNIGYTLFSSKPVTITVQVPSMGSSSPMG
modifications: not checked
- Kd [1]: 1.89 µM
- Kd [2]: 0.662 µM
